Reference: publication PMC12210985

How the values were obtained:
[1] = target: T1, MBP-Crp (Shewanella oneidensis MR-1) (UniProt Q8EJ49); test: EMSA; conditions: EMSA: 2 mM EDTA, 20 mM KCl, 0.5 mM DTT, 4% Ficoll-400, pH 8.0, 2 ug poly(dI-dC), 10 nM probe, 10 uM cAMP for Crp; MST: 1x PBS pH 7.4, 0.05% Tween-20, 25 C
T1 sequence: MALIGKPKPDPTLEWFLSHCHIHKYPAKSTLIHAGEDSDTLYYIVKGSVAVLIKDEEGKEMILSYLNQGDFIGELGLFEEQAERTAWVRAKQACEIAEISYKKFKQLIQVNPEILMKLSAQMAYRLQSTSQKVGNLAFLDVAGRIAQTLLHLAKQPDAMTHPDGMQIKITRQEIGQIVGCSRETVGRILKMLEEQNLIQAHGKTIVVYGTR

[2] = target: T2, ArcA-P (Shewanella oneidensis MR-1) (UniProt Q8EAB9); test: EMSA; conditions: EMSA: 2 mM EDTA, 20 mM KCl, 0.5 mM DTT, 4% Ficoll-400, pH 8.0, 2 ug poly(dI-dC), 10 nM probe, 10 uM cAMP for Crp; MST: 1x PBS pH 7.4, 0.05% Tween-20, 25 C
T2 sequence: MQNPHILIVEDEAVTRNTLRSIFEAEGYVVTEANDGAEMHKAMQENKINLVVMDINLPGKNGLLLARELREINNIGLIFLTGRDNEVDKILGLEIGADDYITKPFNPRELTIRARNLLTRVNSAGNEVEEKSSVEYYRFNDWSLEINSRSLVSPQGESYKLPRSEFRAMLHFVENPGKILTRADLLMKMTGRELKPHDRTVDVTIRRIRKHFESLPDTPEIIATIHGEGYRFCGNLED

[3] = target: T2, ArcA-P (Shewanella oneidensis MR-1); test: MST; conditions: EMSA: 2 mM EDTA, 20 mM KCl, 0.5 mM DTT, 4% Ficoll-400, pH 8.0, 2 ug poly(dI-dC), 10 nM probe, 10 uM cAMP for Crp; MST: 1x PBS pH 7.4, 0.05% Tween-20, 25 C
[4] = target: T3, MBP-Crp-His6 (Shewanella oneidensis MR-1) (UniProt Q8EJ49); test: MST; conditions: EMSA: 2 mM EDTA, 20 mM KCl, 0.5 mM DTT, 4% Ficoll-400, pH 8.0, 2 ug poly(dI-dC), 10 nM probe, 10 uM cAMP for Crp; MST: 1x PBS pH 7.4, 0.05% Tween-20, 25 C
T3 sequence: T1 sequence

[5] = tested on: ArcA-P (Shewanella oneidensis MR-1); test: MST; conditions: phosphorylated ArcA; EMSA: 2 mM EDTA, 20 mM KCl, 0.5 mM DTT, 4% Ficoll-400, pH 8.0, 2 ug poly(dI-dC), 10 nM probe, 10 uM cAMP for Crp; MST: 1x PBS pH 7.4, 0.05% Tween-20, 25 C
[6] = tested on: MBP-Crp-His6 (Shewanella oneidensis MR-1); test: MST; conditions: EMSA: 2 mM EDTA, 20 mM KCl, 0.5 mM DTT, 4% Ficoll-400, pH 8.0, 2 ug poly(dI-dC), 10 nM probe, 10 uM cAMP for Crp; MST: 1x PBS pH 7.4, 0.05% Tween-20, 25 C

Substance | binding [1] | binding [2] | binding [3] | binding [4] | Kd [5] [nM] | Kd [6] [nM]
AATAACAACCTCAACAAACTCATGTAAATGGCTAAGTTATACCACGGAACAGATAAGAGATAACTACTTTAGTCTAACTAAACAGGCAATTTAGCATTAAAGATATTTCAGAAACAATAAACCACACGATAAAATTTGAGCAGCAAAAAGGGGTAGTGTTCATAATTCTGTGTCATTTCAGTAAAATATTCAAAAACAGGAATGACAC (double strand) [ndh promoter probe (Pndh)] | binds | binds | binds | binds |  | 
nqr1 promoter probe (PnqrA1) |  |  |  |  | 560 | 120
nqr2 promoter probe (PnqrA2) |  |  |  |  | 680 | 2020
